In US20060294600A1:

Target: Runx2 expressed from pCMV5 Cbfa1 in transfected cells
Test: cell-based or functional assay

transcriptional activity of Runx2 (luciferase reporter, transient transfection in Cos-7 cells; 6xOSE2 artificial promoter and human osteocalcin promoter): 3 fold
Substance: Fhl2 expressed from pCMX Fhl2 in Cos-7 cells (from UniProt Q14192 1-279)
